{"source": "patent US6596500B1", "about": "“Binding of retinoids to M6P/IGF-II receptor” (The General Hospital Corporation, priority 1998, dated 2003)", "molecules": {"B1": {"name": "β-glucuronidase: M6P-containing lysosomal enzyme (protein, UniProt P08236 23-651, looked up)", "Beta-glucuronidase": "LQGGMLYPQESPSRECKELDGLWSFRADFSDNRRRGFEEQWYRRPLWESGPTVDMPVPSSFNDISQDWRLRHFVGWVWYEREVILPERWTQDLRTRVVLRIGSAHSYAIVWVNGVDTLEHEGGYLPFEADISNLVQVGPLPSRLRITIAINNTLTPTTLPPGTIQYLTDTSKYPKGYFVQNTYFDFFNYAGLQRSVLLYTTPTTYIDDITVTTSVEQDSGLVNYQISVKGSNLFKLEVRLLDAENKVVANGTGTQGQLKVPGVSLWWPYLMHERPAYLYSLEVQLTAQTSLGPVSDFYTLPVGIRTVAVTKSQFLINGKPFYFHGVNKHEDADIRGKGFDWPLLVKDFNLLRWLGANAFRTSHYPYAEEVMQMCDRYGIVVIDECPGVGLALPQFFNNVSLHHHMQVMEEVVRRDKNHPAVVMWSVANEPASHLESAGYYLKMVIAHTKSLDPSRPVTFVSNSNYAADKGAPYVDVICLNSYYSWYHDYGHLELIQLQLATQFENWYKKYQKPIIQSEYGAETIAGFHQDPPLMFTEEYQKSLLEQYHLGLDQKRRKYVVGELIWNFADFMTEQSPTRVLGNKKGIFTRQRQPKSAAFLLRERYWKIANETRYPHSVAKSQCLENSLFT"}}, "target": "T1, partially purified rat M6P/IGF-II receptor (Rattus norvegicus, UniProt G3V824)", "T1 construct": "both intact (300 kDa) and truncated (260 kDa) forms of M6P/IGF-II receptor exist in the serum; from tissue; host or cells: neonatal rat serum, FPLC Sepharose-12 fraction", "T1 sequence (G3V824 36-2481)": "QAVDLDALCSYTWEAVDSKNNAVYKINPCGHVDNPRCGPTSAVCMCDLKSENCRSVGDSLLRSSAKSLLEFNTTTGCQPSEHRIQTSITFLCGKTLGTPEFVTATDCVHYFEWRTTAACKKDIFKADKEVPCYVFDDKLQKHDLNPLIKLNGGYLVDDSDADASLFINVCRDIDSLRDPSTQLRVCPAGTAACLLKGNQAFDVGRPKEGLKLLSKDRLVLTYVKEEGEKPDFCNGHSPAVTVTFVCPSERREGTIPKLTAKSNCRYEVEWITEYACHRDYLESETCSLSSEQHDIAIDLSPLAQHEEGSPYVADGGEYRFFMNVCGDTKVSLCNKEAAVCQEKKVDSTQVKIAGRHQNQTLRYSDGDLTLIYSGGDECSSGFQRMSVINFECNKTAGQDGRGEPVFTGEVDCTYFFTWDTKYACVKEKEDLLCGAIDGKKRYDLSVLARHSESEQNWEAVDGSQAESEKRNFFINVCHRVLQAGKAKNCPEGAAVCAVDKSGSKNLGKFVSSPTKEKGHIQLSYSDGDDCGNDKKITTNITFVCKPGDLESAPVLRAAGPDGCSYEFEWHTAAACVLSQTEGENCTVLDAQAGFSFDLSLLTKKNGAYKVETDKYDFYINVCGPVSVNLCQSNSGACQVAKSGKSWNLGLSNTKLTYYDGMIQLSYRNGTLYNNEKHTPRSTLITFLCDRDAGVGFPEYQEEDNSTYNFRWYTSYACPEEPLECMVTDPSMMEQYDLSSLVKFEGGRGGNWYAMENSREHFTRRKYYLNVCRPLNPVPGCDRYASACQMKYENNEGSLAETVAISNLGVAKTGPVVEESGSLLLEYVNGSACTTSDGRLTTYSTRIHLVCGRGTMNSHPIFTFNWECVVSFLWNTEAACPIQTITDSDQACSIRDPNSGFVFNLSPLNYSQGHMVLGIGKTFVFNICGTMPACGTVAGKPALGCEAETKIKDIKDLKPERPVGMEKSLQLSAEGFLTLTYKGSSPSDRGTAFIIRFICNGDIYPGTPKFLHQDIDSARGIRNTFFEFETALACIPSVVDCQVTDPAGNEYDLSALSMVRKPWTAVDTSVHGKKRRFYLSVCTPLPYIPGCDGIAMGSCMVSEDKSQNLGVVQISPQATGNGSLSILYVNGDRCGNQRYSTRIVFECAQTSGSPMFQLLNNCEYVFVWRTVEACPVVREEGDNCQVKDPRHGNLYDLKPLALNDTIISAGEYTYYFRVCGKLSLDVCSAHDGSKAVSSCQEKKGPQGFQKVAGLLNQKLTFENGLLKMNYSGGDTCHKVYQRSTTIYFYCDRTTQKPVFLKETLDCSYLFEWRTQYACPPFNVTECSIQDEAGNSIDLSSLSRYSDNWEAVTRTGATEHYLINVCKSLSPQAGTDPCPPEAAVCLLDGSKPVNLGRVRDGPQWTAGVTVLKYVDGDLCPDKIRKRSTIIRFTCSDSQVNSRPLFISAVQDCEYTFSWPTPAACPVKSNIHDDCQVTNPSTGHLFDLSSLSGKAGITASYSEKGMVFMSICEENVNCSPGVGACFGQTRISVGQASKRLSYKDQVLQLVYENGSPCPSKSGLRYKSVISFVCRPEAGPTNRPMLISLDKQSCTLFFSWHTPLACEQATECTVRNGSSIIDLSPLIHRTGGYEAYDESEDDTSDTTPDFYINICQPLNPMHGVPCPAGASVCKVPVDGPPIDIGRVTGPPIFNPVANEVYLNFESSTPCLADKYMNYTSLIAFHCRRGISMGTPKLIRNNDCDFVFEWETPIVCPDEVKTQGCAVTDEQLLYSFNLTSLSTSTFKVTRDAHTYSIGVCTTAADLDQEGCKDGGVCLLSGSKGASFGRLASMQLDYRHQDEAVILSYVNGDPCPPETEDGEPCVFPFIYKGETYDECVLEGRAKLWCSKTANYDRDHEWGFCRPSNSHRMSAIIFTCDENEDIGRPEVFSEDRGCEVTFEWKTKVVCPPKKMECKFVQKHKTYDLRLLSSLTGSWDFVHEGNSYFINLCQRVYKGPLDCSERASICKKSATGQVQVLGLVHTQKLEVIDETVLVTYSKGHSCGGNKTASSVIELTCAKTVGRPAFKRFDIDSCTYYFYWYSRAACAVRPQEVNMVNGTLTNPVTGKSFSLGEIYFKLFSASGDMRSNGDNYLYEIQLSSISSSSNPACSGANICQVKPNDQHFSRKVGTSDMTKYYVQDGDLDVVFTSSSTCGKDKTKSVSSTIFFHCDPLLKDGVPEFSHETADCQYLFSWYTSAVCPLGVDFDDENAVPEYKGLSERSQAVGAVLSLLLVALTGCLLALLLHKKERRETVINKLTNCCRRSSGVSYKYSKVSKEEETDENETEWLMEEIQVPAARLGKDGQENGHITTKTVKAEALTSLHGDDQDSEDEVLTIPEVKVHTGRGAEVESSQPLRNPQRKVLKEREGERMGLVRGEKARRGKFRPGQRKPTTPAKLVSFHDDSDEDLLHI", "experiment": "Equilibrium [3H]RA ligand-binding assay (dextran-charcoal), Scatchard analysis", "conditions": "β-glucuronidase 2,500 units/ml", "experimental": "Partially purified M6P/IGF-II receptors from neonatal rat serum was prepared using a Fast Protein Liquid Chromatography (FPLC) system equipped with a Sepharose-12 column (Pharmacia). The partially purified M6P/IGF2R protein was diluted in binding buffer (20 mM Tris-HCl, pH 8.0/150 mM NaCl/1mM DTT/protease inhibitors) at a concentration of 50 Ag/ml. […] Incubation was carried out at 22° C. for 2 h in the dark. After the incubation, 0.2 ml chilled charcoal-dextran suspension (charcoal/dextran/glycerol=0.5%/0.05%/20%) was added to remove the unbound ligand."}
{"molecule": "B1", "values": [{"measurement": "Effect on [3H]RA binding to the receptor", "value": "increase [^3H]RA binding"}]}
